IntAct's records for PubMed 8137824

B1: Mating-type protein ALPHA2 (Saccharomyces cerevisiae), P0CY08 (parent)
chain: MNKIPIKDLLNPQITDEFKSSILDINKKLFSICCNLPKLPESVTTEEEVELRDILGFLSRANKNRKISDEEKKLLQTTSQLTTTITVLLKEMRSIENDRSNYQLTQKNKSADGLVFNVVTQDMINKSTKPYRGHRFTKENVRILESWFAKNIENPYLDTKGLENLMKNTSLSRIQIKNWVSNRRRKEKTITIAPELADLLSGEPLAKKKE
partner: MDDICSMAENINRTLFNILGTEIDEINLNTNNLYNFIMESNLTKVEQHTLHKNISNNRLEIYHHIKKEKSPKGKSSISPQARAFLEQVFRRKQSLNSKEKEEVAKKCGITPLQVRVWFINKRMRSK

Variants of: B1
Details: with mata1_yeasx MATA1, P0CY10

Variant	effect of a mutation on the interaction
MNKIPIKDLLNPQITDEFKSSILDINKKLFSICCNLPKLPESVTTEEEVELRDILGFLSRANKNRKASDEEKKALQTTSQATTTITVALKEMRSIENDRSNYQLTQKNKSADGLVFNVVTQDMINKSTKPYRGHRFTKENVRILESWFAKNIENPYLDTKGLENLMKNTSLSRIQIKNWVSNRRRKEKTITIAPELADLLSGEPLAKKKE [I67A;L74A;L81A;L88A]	disrupting interaction strength
